Columns and labels:
[1] = target: collagen α1α1α2(IV) purified from conditioned culture medium of LH3 KO PFHR9 cells (mouse (endogenous in PFHR9)); experiment: rotary shadow electron microscopy; purified collagen α1α1α2(IV) (about 100 μg/ml) in 0.2 M acetic acid, 70% glycerol, sprayed on mica, carbon/platinum shadowed; molecules counted (WT n = 690, LH3 KO n = 295); hexamers = two heterotrimers, dodecamers = four heterotrimers
[2] = target: collagen α1α1α2(IV) purified from conditioned culture medium of WT PFHR9 cells (mouse (endogenous in PFHR9)); experiment: as above
[3] = target: T1, collagen α1α1α2(IV) purified from conditioned culture medium of LH3 KO PFHR9 cells (mouse (endogenous in PFHR9), more unmodified lysines (significantly fewer hydroxylysines)); high occupancy of galactosyl Hyl but not glucosyl galactosyl Hyl; prolyl 4 hydroxylation reduced | more unmodified lysines (significantly …); experiment: SPR
T1 sequence (P02463 28-1669, chain 1 of 2): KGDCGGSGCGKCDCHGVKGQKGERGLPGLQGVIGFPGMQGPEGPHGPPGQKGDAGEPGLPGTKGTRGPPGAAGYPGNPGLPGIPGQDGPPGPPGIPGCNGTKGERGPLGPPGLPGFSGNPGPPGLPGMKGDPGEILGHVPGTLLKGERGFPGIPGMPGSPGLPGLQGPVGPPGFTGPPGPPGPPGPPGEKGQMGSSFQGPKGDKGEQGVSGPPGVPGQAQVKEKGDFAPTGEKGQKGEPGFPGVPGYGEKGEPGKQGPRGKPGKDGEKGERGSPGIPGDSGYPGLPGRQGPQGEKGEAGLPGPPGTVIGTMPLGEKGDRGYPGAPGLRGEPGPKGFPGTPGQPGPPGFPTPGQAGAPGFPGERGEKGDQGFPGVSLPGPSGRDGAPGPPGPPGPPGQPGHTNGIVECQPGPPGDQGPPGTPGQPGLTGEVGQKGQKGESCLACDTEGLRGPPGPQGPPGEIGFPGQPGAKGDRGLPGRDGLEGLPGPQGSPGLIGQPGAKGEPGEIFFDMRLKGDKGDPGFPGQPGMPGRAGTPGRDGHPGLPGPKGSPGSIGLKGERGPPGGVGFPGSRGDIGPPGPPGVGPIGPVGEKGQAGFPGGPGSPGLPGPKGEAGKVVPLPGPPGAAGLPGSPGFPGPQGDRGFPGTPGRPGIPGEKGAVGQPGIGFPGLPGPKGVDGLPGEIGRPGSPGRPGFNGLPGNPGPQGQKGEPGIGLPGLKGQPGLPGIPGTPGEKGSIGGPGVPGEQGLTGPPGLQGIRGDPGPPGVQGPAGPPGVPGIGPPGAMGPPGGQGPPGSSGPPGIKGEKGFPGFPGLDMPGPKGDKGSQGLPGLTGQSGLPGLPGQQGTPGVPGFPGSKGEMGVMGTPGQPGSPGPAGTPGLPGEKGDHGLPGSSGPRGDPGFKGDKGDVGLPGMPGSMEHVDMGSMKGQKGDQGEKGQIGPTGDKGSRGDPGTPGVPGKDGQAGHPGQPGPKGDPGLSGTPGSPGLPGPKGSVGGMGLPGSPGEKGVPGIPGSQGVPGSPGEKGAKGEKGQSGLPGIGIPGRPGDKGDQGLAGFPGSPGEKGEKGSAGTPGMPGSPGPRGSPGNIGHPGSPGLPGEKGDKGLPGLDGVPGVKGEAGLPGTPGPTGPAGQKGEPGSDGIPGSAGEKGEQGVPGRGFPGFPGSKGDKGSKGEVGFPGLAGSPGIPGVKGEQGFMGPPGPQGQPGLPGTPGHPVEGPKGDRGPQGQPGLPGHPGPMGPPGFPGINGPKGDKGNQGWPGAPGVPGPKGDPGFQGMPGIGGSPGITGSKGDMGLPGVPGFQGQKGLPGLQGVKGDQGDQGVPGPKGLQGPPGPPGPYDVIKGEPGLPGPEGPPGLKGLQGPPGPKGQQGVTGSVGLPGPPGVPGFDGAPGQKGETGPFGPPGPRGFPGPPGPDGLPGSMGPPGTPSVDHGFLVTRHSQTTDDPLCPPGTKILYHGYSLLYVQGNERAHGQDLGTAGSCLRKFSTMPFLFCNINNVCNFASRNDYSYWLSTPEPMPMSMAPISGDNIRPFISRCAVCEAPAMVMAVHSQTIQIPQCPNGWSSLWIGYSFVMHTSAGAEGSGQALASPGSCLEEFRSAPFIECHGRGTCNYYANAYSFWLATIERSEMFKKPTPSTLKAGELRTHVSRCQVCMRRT
T1 sequence (P08122 26-1707, chain 2 of 2, further chain): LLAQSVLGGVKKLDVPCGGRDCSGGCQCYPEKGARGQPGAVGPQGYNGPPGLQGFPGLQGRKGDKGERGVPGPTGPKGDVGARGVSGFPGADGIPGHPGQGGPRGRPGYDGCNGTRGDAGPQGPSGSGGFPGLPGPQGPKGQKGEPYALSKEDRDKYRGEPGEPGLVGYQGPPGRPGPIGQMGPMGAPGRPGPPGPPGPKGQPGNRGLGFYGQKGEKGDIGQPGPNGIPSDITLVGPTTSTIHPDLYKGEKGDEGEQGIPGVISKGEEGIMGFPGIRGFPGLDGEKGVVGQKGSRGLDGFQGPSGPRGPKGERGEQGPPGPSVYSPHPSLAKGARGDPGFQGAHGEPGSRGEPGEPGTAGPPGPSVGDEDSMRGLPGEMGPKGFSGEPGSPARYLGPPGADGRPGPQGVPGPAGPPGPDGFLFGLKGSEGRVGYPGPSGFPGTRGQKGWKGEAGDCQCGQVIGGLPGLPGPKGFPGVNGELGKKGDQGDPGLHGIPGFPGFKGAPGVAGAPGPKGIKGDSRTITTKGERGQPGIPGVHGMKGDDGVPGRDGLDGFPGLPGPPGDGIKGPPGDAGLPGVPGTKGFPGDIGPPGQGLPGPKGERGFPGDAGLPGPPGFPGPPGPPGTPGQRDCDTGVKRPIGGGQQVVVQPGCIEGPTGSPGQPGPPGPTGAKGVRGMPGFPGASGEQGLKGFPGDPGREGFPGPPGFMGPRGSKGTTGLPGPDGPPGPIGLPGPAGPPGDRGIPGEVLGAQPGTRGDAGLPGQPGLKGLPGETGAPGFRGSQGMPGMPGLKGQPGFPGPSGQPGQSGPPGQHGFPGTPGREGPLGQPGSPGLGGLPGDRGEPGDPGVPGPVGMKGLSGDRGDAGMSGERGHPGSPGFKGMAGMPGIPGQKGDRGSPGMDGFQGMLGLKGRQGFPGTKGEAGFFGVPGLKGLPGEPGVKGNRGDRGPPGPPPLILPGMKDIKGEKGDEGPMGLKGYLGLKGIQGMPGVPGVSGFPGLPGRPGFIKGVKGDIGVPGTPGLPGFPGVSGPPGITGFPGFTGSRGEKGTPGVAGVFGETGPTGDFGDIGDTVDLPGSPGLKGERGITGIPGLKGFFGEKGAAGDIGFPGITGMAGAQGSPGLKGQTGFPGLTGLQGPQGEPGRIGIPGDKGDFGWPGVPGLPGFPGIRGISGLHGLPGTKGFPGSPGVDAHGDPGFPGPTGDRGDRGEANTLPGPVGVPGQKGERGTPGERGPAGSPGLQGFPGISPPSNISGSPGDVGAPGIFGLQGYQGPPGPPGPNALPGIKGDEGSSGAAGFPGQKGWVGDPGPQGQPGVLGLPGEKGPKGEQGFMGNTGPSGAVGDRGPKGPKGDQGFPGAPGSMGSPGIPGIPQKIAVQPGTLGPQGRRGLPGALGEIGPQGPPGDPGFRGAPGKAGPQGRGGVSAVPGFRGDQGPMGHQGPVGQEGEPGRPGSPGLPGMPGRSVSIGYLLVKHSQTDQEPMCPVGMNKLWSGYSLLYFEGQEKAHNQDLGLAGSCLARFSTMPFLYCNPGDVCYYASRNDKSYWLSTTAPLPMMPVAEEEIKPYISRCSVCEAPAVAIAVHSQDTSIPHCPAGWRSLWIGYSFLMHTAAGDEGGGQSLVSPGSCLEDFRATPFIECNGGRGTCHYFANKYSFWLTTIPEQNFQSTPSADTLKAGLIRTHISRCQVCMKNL

[4] = target: T2, collagen α1α1α2(IV) purified from conditioned culture medium of WT PFHR9 cells (mouse (endogenous in PFHR9), hydroxylysines, almost fully modified to glucosyl galactosyl Hyl; 4-hydroxyproline; 3-hydroxyproline | hydroxylysines, almost fully modified to glucosyl galactosyl Hyl; 4-hydroxyproline; …); experiment: SPR
T2 sequence (P02463 28-1669, chain 1 of 2): as the sequence (P02463 28-1669, chain 1 of 2) above
T2 sequence (P08122 26-1707, chain 2 of 2, further chain): as the sequence (P08122 26-1707, chain 2 of 2, further chain) above

[5] = target: T1, collagen α1α1α2(IV) purified from …; experiment: SPR; remark: listed apart in the source
[6] = target: T2, collagen α1α1α2(IV) purified from …; experiment: SPR; remark: listed apart in the source

Q: “collagen α1α1α2(IV) purified from conditioned culture medium of LH3 KO PFHR9 cells (complex)” was tested. Which percent of molecules seen as shortened hexamers (two heterotrimers) [1] did it give?
A: The percent of molecules seen as shortened hexamers (two heterotrimers) was 7.8%.

Q: With “collagen α1α1α2(IV) purified from conditioned culture medium of WT PFHR9 cells (complex)” as the molecule, how does the percent of molecules seen as dodecamers (four heterotrimers) [2] read?
A: Its percent of molecules seen as dodecamers (four heterotrimers) is 9%.

Q: What about the percent of molecules seen as hexamers (two heterotrimers) [2] of the same molecule?
A: The percent of molecules seen as hexamers (two heterotrimers) was 8.5%.

B1: heat shock protein 47 (natural protein)
chain: VPSEDRKLSDKATTLADRSTTLAFNLYHAMAKDKNMENILLSPVVVASSLGLVSLGGKATTASQAKAVLSADKLNDDYVHSGLSELLNEVSNSTARNVTWKIGNRLYGPASINFADDFVKNSKKHYNYEHSKINFRDKRSALKSINEWAAQTTDGKLPEVTKDVEKTDGALIVNAMFFKPHWDEKFHHKMVDNRGFMVTRSYTVGVPMMHRTGLYNYYDDEAEKLQVVEMPLAHKLSSMIFIMPNHVEPLERVEKLLNREQLKTWASKMKKRSVAISLPKVVLEVSHDLQKHLADLGLTEAIDKTKADLSKISGKKDLYLSNVFHAAALEWDTDGNPYDADIYGREEMRNPKLFYADHPFIFMIKDSKTNSILFIGRLVRPKGDKMRDEL
Q: What does the source list for B1?
A: Kd [3]: 116 nM; Kd [4]: 17.9 nM; koff [5]: 0.107 s⁻¹; koff [6]: 0.0226 s⁻¹
